Data as given in patent US11833164B2, “Methods of treating Fabry disease in patients having a mutation in the GLA gene” (Amicus Therapeutics, Inc., priority 2019, dated 2023).
Positions count from the first letter of the chain named. In names and notes the source's numbering stands.

B1: K127E (protein)
chain: MQLRNPELHLGCALALRFLALVSWDIPGARALDNGLARTPTMGWLHWERFMCNLDCQEEPDSCISEKLFMEMAELMVSEGWKDAGYEYLCIDDCWMAPQRDSEGRLQADPQRFPHGIRQLANYVHSEGLKLGIYADVGNKTCAGFPGSFGYYDIDAQTFADWGVDLLKFDGCYCDSLENLADGYKHMSLALNRTGRSIVYSCEWPLYMWPFQKPNYTEIRQYCNHWRNFADIDDSWKSIKSILDWTSFNQERIVDVAGPGGWNDPDMLVIGNFGLSWNQQVTQMALWAIMAAPLFMSNDLRHISPQAKALLQDKDVIAINQDPLGKQGYQLRQGDNFEVWERPLSGLAWAVAMINRQEIGGPRSYTIAVASLGKGVACNPACFITQLLPVKRKLGFYEWTSRLRSHINPTGTVLLQLENTMQMSLKDLL
B2: G128A (protein)
chain: B1 chain with E127K, G128A
B3: L129V (protein)
chain: B1 chain with E127K, L129V
B4: I133T (protein)
chain: B1 chain with E127K, I133T
B5: A135T (protein)
chain: B1 chain with E127K, A135T
B6: A135E (protein)
chain: B1 chain with E127K, A135E
B7: I133V (protein)
chain: B1 chain with E127K, I133V
B8: I133L (protein)
chain: B1 chain with E127K, I133L
B9: L131V (protein)
chain: B1 chain with E127K, L131V
B10: A135G (protein)
chain: B1 chain with E127K, A135G
B11: V137D (protein)
chain: B1 chain with E127K, V137D
B12: V137I (protein)
chain: B1 chain with E127K, V137I
B13: K130Q (protein)
chain: B1 chain with E127K, K130Q
B14: A135S (protein)
chain: B1 chain with E127K, A135S
B15: V137G (protein)
chain: B1 chain with E127K, V137G
B16: K130N (protein)
chain: B1 chain with E127K, K130N
B17: D136A (protein)
chain: B1 chain with E127K, D136A
B18: K130M (protein)
chain: B1 chain with E127K, K130M
B19: D136V (protein)
chain: B1 chain with E127K, D136V
B20: D136N (protein)
chain: B1 chain with E127K, D136N
B21: V137A (protein)
chain: B1 chain with E127K, V137A

tested on: mutant form of α-Gal A expressed in HEK-293 cells; assay: HEK assay (GLP HEK / Migalastat Amenability Assay): α-Gal A activity in lysates of transiently transfected HEK-293 cells incubated with or without 10 μM migalastat; assay type: cell-based, human; conditions: 10 μM migalastat versus baseline
Outline: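 HEK-293 cells transiently transfected with mutant α-Gal A and incubated with or without 10 μM migalastat; lysate activity given as nmol free 4-MU released per mg protein per hour. Values are mean±SEM.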

| Molecule | Absolute increase (% WT) |
| --- | --- |
| B1 | 6.4 % WT |
| B2 | 5.1 % WT |
| B3 | 16.4 % WT |
| B4 | 15.0 % WT |
| B5 | 23.2 % WT |
| B6 | 7.4 % WT |
| B7 | 21.9 % WT |
| B8 | 17.5 % WT |
| B9 | 12.7 % WT |
| B10 | 16.1 % WT |
| B11 | 11.6 % WT |
| B12 | 24.7 % WT |
| B13 | 12.0 % WT |
| B14 | 12.2 % WT |
| B15 | 52.4 % WT |
| B16 | 10.1 % WT |
| B17 | 9.4 % WT |
| B18 | 10.9 % WT |
| B19 | 74.2 % WT |
| B20 | 11.2 % WT |
| B21 | 45.4 % WT |

same assay, conditions: 10 μM migalastat α-Gal A activity relative to baseline

| Molecule | Relative increase |
| --- | --- |
| B1 | 1.2 |
| B2 | 1.2 |
| B3 | 1.5 |
| B4 | 2.4 |
| B5 | 2.4 |
| B6 | 1.3 |
| B7 | 1.2 |
| B8 | 1.3 |
| B9 | 1.3 |
| B10 | 1.2 |
| B11 | 9.2 |
| B12 | 1.8 |
| B13 | 1.4 |
| B14 | 1.3 |
| B15 | 2.2 |
| B16 | 1.5 |
| B17 | 1.5 |
| B18 | 1.3 |
| B19 | 2.8 |
| B20 | 1.9 |
| B21 | 1.8 |

same assay, conditions: 10 μM migalastat, 5 days; percentage of baseline wild-type α-Gal A activity; mean ± SEM

| Molecule | 10 μM migalastat α-Gal A activity (% WT) |
| --- | --- |
| B1 | 32.2 ± 2.3 % WT |
| B2 | 25.9 ± 2.3 % WT |
| B3 | 48.1 ± 4.5 % WT |
| B4 | 25.8 ± 1.1 % WT |
| B5 | 40.5 ± 3.4 % WT |
| B6 | 32.5 ± 1.6 % WT |
| B7 | 118.1 ± 5.1 % WT |
| B8 | 78.2 ± 3.1 % WT |
| B9 | 53.2 ± 5.3 % WT |
| B10 | 90 ± 3.6 % WT |
| B11 | 13 ± 1.6 % WT |
| B12 | 57.4 ± 2.5 % WT |
| B13 | 47.8 ± 3.1 % WT |
| B14 | 57.9 ± 3.2 % WT |
| B15 | 98.2 ± 5 % WT |
| B16 | 31.5 ± 3 % WT |
| B17 | 29.8 ± 1 % WT |
| B18 | 41.4 ± 2.6 % WT |
| B19 | 116.4 ± 5.5 % WT |
| B20 | 24.2 ± 0.9 % WT |
| B21 | 106.6 ± 5.9 % WT |

same assay, conditions: absence of migalastat; percentage of baseline wild-type α-Gal A activity; mean ± SEM

| Molecule | Baseline α-Gal A activity (% WT) |
| --- | --- |
| B1 | 25.8 ± 1.1 % WT |
| B2 | 20.8 ± 2 % WT |
| B3 | 31.8 ± 3.3 % WT |
| B4 | 10.8 ± 1 % WT |
| B5 | 17.4 ± 1.3 % WT |
| B6 | 25.1 ± 1.5 % WT |
| B7 | 96.2 ± 3.7 % WT |
| B8 | 60.7 ± 2.7 % WT |
| B9 | 40.5 ± 2.8 % WT |
| B10 | 73.9 ± 3.8 % WT |
| B11 | 1.4 ± 0.2 % WT |
| B12 | 32.8 ± 1.6 % WT |
| B13 | 35.8 ± 2.6 % WT |
| B14 | 45.6 ± 2.9 % WT |
| B15 | 45.9 ± 4.2 % WT |
| B16 | 21.5 ± 1.9 % WT |
| B17 | 20.4 ± 1.1 % WT |
| B18 | 30.5 ± 2.1 % WT |
| B19 | 42.2 ± 1.7 % WT |
| B20 | 13 ± 0.8 % WT |
| B21 | 61.1 ± 4.6 % WT |

same assay, conditions: lysates of HEK-293 cells transfected with the mutant form, incubated 5 days in the absence of migalastat; mean ± SEM

| Molecule | Baseline α-Gal A activity |
| --- | --- |
| B1 | 8968 ± 519 nmol/mg/h |
| B2 | 8484 ± 872 nmol/mg/h |
| B3 | 12614 ± 1265 nmol/mg/h |
| B4 | 4362 ± 397 nmol/mg/h |
| B5 | 7906 ± 694 nmol/mg/h |
| B6 | 10143 ± 752 nmol/mg/h |
| B7 | 38738 ± 1624 nmol/mg/h |
| B8 | 24431 ± 1181 nmol/mg/h |
| B9 | 18644 ± 1664 nmol/mg/h |
| B10 | 29959 ± 2193 nmol/mg/h |
| B11 | 516 ± 80 nmol/mg/h |
| B12 | 12148 ± 597 nmol/mg/h |
| B13 | 11880 ± 450 nmol/mg/h |
| B14 | 16777 ± 897 nmol/mg/h |
| B15 | 16515 ± 1170 nmol/mg/h |
| B16 | 8597 ± 678 nmol/mg/h |
| B17 | 8054 ± 482 nmol/mg/h |
| B18 | 12335 ± 890 nmol/mg/h |
| B19 | 17164 ± 1203 nmol/mg/h |
| B20 | 5079 ± 248 nmol/mg/h |
| B21 | 22393 ± 1429 nmol/mg/h |

same assay, conditions: lysates of HEK-293 cells transfected with the mutant form, incubated 5 days with 10 μM migalastat; mean ± SEM

| Molecule | 10 μM migalastat α-Gal A activity |
| --- | --- |
| B1 | 11003 ± 768 nmol/mg/h |
| B2 | 10204 ± 703 nmol/mg/h |
| B3 | 19488 ± 1603 nmol/mg/h |
| B4 | 10255 ± 335 nmol/mg/h |
| B5 | 18890 ± 2092 nmol/mg/h |
| B6 | 12954 ± 678 nmol/mg/h |
| B7 | 47299 ± 1885 nmol/mg/h |
| B8 | 31550 ± 1420 nmol/mg/h |
| B9 | 24913 ± 3151 nmol/mg/h |
| B10 | 36552 ± 2309 nmol/mg/h |
| B11 | 4757 ± 618 nmol/mg/h |
| B12 | 21313 ± 987 nmol/mg/h |
| B13 | 16001 ± 701 nmol/mg/h |
| B14 | 21383 ± 1125 nmol/mg/h |
| B15 | 36258 ± 1701 nmol/mg/h |
| B16 | 12595 ± 989 nmol/mg/h |
| B17 | 12166 ± 927 nmol/mg/h |
| B18 | 16496 ± 921 nmol/mg/h |
| B19 | 47647 ± 3779 nmol/mg/h |
| B20 | 9827 ± 630 nmol/mg/h |
| B21 | 40016 ± 2785 nmol/mg/h |
